From patent US20030219427A1, “TPL-2/COT kinase and methods of use” (priority 1998, published 2003)

What was measured:
[1] = target: T1, Myc-TPL-2ΔC MEK kinase activity (Rattus norvegicus, UniProt Q63562); test: In vitro MEK kinase assay with GST-MEK1(K207A) substrate, Myc-TPL-2ΔC; assay type: biochemical
T1 construct: TPL-2ΔC which lacks the C-terminal 70 amino acids; made in house; host or cells: HEK 293 cells, transient transfection, anti-Myc immunoprecipitation
Method: (§1) Myc-TPL-2 or Myc-TPL-2ΔC were isolated by immunoprecipitation from lysates of transiently transfected 293 cells, as described above. immunoprecipitates were washed four times in Buffer A, followed by two washes in kinase buffer (50 mM Tris-pH7.5, 150 mM NaCl, 5 mM β-glycerophosphate, 2 mM dithiothreitol, 0.1 mM sodium vanadate, 10 mM MgCl2, 1 mM EGTA, 0.01% Brij35). Beads were then resuspended in 50μl of kinase buffer plus the indicated amounts of recombinant p105 protein and incubated at 4° C. for 30 min. […] The supernatant was removed, mixed with an equal volume of 2×sample buffer, Western blotted after 8%-acrylamide SDS-PAGE and probed with anti-phospho-MEK-½ antibody. Immunoprecipitated Myc-TPL-2 or Myc-TPL-2ΔC was eluted with Laemlli sample buffer from the remaining anti-Myc mAb beads and quantified by Western blotting.
(5.6.c) The inhibition of TPL-2 MEK kinase activity by p 105498-969 may be more efficient than the isolated p105 DD as the former protein contains a binding site for the TPL-2 C-terminus. It was, therefore, interesting to determine the sensitivity of TPL2ΔC catalytic activity to inhibition by p105. The specific activity of Myc-TPL-2ΔC, isolated by immunoprecipitation from transfected 293 cell lysates, was modestly (approximately 2-3 fold) increased relative to wild type Myc-TPL-2.

[2] = target: T2, Myc-TPL-2 MEK kinase activity (Rattus norvegicus, UniProt Q63562); test: In vitro MEK kinase assay with GST-MEK1(K207A) substrate, Myc-TPL-2; assay type: biochemical; details: equivalent molar concentrations to p105498-969
T2 construct: made in house; host or cells: HEK 293 cells, transient transfection, anti-Myc immunoprecipitation
Method: as §1
Only a small fraction of over-expressed Myc-TPL-2 is associated with p105, presumably due to titration of endogenous p105 protein. The effect of p105 binding on Myc-TPL-2 MEK kinase activity was investigated by incubation of TPL-2 imnmunoprecipitates with recombinant p105498-969 protein prior to in vitro kinase assay. MEK phosphorylation was assayed by Western blotting with anti-phospho-MEK-½ antibody. Control experiments confirmed that p105498-969 protein bound to TPL-2 in vitro. […]

[3] = target: T3, TPL-2 C-terminus (TPL-2398-467 peptide) (Rattus norvegicus, UniProt Q63562); test: Surface plasmon resonance (BIAcore) binding to immobilized TPL-2 C-terminal peptide; details: biotinylated TPL-2398-467 on Streptavidin sensor surface, 25° C.
T3 construct: a synthetic peptide corresponding to the C-terminus of TPL-2 (residues 398-467); made in house; host or cells: chemical peptide synthesis
Method: Interaction between the TPL-2 C-terminus and recombinant p105 proteins was measured by surface plasmon resonance using the BIAcore system (BIAcore AB, Uppsala, Sweden; (Szabo, A., et al. (1995) Curr. Opin. Struct. biol. 5: 699-705)). The C-terminal 70 amino acids of TPL-2 (TPL-2398-467) were synthesised as a biotinylated peptide (conjugated to the equivalent of Cys398 of full length TPL-2) and immobilized on a Streptavidin-coated sensor surface (Sensorchip SA, BIAcore AB). Recombinant p105 proteins were then injected at different concentrations and resonance signals monitored. Dissociation at 25° C. was measured by flushing the TPL-2/p105 complexes with HBS-P buffer (10 MM HEPES-pH7.4, 150 mM NaCl, 0.005% (v/v) polysorbate 20; BIAcore AB). Data were evaluated using BIAevaluation software, version 3.0.2.
(5.3.b) In order to obtain corroborating evidence for the TPL-2 C-terminus binding site on p105, surface plasmon resonance experiments were carried out using the panel of recombinant p105 proteins including p105 1-969, p105 498-969, p105 498-806, p105 497-782 and p105 541-802.

T1 sequence (Q63562 1-397, stated change not applied): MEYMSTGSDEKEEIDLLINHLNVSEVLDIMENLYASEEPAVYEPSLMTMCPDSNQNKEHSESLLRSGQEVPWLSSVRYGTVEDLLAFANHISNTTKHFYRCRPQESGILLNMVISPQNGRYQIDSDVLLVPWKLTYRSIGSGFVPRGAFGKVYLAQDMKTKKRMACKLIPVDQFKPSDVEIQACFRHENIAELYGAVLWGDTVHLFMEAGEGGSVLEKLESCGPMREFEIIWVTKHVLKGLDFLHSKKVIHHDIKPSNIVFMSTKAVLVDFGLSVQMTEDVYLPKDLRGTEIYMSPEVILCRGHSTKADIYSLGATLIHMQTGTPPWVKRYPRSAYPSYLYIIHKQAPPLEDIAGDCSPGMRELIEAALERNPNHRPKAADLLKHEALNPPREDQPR
T3 sequence (Q63562 398-467): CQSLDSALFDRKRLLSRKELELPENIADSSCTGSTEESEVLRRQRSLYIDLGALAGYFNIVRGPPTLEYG
T2 sequence (Q63562 whole entry): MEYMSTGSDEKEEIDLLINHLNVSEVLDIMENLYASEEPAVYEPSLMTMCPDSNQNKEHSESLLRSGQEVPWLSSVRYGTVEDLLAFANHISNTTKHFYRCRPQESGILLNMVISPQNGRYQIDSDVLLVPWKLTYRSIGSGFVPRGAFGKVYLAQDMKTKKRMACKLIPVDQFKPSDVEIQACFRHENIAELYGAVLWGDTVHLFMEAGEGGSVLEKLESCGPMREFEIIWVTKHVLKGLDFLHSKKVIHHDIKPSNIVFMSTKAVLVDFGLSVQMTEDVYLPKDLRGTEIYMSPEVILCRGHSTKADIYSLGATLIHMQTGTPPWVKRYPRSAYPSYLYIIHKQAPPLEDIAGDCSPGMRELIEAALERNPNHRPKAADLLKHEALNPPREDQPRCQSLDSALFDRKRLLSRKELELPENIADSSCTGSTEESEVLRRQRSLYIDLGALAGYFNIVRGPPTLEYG

B1: TPL-2398-467 peptide: synthetic peptide corresponding to the C-terminal 70 amino acids of TPL-2 (peptide)
peptide: CTSLDSALLERKRLLSRKELELPENIADSSCTGSTEESEMLKRQRSLYIDLGALAGYFNLVRGPPTLEYG
effect on TPL-2ΔC in vitro MEK kinase activity [1]: not found to affect

B2: p105498-969(ΔDD): recombinant p105 498-969 protein which lacks the p105 death domain (protein)
chain: QDNLFLEKAMQLAKRHANALFDYAVTGDVKMLLAVQRHLTAVQDENGDSVLHLAIIHLHSQLVRDLLEVTSGLISDDIINMRNDLYQTPLHLAVITKQEDVVEDLLRAGADLSLLDRLGNSVLHLAAKEGHDKVLSILLKHKKAALLLDHPNGDGLNAIHLAMMSNSLPCLLLLVAAGADVNAQEQKSGRTALHLAVEHDNISLAGCLLLEGDAHVDSTTYDGTTPLHIAAGRGSTRLAALLKAAGADPLVENFEPLYDLDDSWENAGEDEGVVPGTTPLDMATSWQVFDILNGKPYEPEFTSDDSPVKTTSQAHSLPLSPASTRQQIDELRDSDSVCDSGVETSFRKLSFTESLTSGASLLTLNKMPHDYGQEGPLEGKI
effect on Myc-TPL-2 MEK kinase activity [2]: did not affect

B3: p105541-802: recombinant p105 protein, residues 541-802 (protein)
chain: DENGDSVLHLAIIHLHSQLVRDLLEVTSGLISDDIINMRNDLYQTPLHLAVITKQEDVVEDLLRAGADLSLLDRLGNSVLHLAAKEGHDKVLSILLKHKKAALLLDHPNGDGLNAIHLAMMSNSLPCLLLLVAAGADVNAQEQKSGRTALHLAVEHDNISLAGCLLLEGDAHVDSTTYDGTTPLHIAAGRGSTRLAALLKAAGADPLVENFEPLYDLDDSWENAGEDEGVVPGTTPLDMATSWQVFDILNGKPYEPEFTSDD
binding to the TPL-2 peptide (affinity constants) [3]: did not detectably bind
